T1: human full-length p50^Cdc37 (residues 1-378) (human), Q16543
T1 chain: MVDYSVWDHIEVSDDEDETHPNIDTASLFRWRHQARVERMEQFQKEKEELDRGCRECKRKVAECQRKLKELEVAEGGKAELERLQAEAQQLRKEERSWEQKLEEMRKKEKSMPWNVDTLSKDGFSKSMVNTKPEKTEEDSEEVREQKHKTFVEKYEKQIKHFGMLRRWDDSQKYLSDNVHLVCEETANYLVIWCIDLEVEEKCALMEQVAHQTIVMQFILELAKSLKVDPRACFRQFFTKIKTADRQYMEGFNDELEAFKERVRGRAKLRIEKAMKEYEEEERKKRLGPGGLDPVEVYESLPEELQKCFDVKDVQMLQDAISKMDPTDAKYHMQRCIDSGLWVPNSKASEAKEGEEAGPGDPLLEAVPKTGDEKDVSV


How the values were obtained:
[1] = target: the different Hsp90 proteins; test: ITC; p50^Cdc37 (200 µM) titrated into Hsp90 (20 µM); 50 mM HEPES pH 7.5, 10 mM MgCl2, 30 °C
[2] = target: T1, human full-length p50^Cdc37 (residues …); test: SEC; analytical Superdex200 10/300 GL, room temperature, 0.3 mL/min; 85 µM protein in 50 mM HEPES pH 7.5, 50 mM KCl, 5 mM MgCl2, 1 mM DTT; fractions on SDS-PAGE; conditions: remark: other sources report otherwise

Kd [1]	stoichiometry N [2]	Binder
1100 to 1900 nM	–	human full-length p50^Cdc37 (residues 1-378) (natural protein) MVDYSVWDHIEVSDDEDETHPNIDTASLFRWRHQARVERMEQFQKEKEELDRGCRECKRKVAECQRKLKELEVAEGGKAELERLQAEAQQLRKEERSWEQKLEEMRKKEKSMPWNVDTLSKDGFSKSMVNTKPEKTEEDSEEVREQKHKTFVEKYEKQIKHFGMLRRWDDSQKYLSDNVHLVCEETANYLVIWCIDLEVEEKCALMEQVAHQTIVMQFILELAKSLKVDPRACFRQFFTKIKTADRQYMEGFNDELEAFKERVRGRAKLRIEKAMKEYEEEERKKRLGPGGLDPVEVYESLPEELQKCFDVKDVQMLQDAISKMDPTDAKYHMQRCIDSGLWVPNSKASEAKEGEEAGPGDPLLEAVPKTGDEKDVSV
–	2	human full-length p50^Cdc37 (residues 1-378), Q16543 1-378 (natural protein) MVDYSVWDHIEVSDDEDETHPNIDTASLFRWRHQARVERMEQFQKEKEELDRGCRECKRKVAECQRKLKELEVAEGGKAELERLQAEAQQLRKEERSWEQKLEEMRKKEKSMPWNVDTLSKDGFSKSMVNTKPEKTEEDSEEVREQKHKTFVEKYEKQIKHFGMLRRWDDSQKYLSDNVHLVCEETANYLVIWCIDLEVEEKCALMEQVAHQTIVMQFILELAKSLKVDPRACFRQFFTKIKTADRQYMEGFNDELEAFKERVRGRAKLRIEKAMKEYEEEERKKRLGPGGLDPVEVYESLPEELQKCFDVKDVQMLQDAISKMDPTDAKYHMQRCIDSGLWVPNSKASEAKEGEEAGPGDPLLEAVPKTGDEKDVSV

From publication PMC4601640, “Stability of the Human Hsp90-p50^Cdc37 Chaperone Complex against Nucleotides and Hsp90 Inhibitors, and the Influence of Phosphorylation by Casein Kinase 2” (Molecules, 2015)
